“And” between values parts separate entries of the source, which are not always exact repeats. Equal values may be shown once.
Experiments:
[1] = test system: caspase 6 in C170 cells; assay: Caspase 6 activation (Western blot); type: cell-based; conditions: 6 hrs; SC104 at 10, more intensely at 100 μg/ml; FIG. 18
Method: Caspase 6 activation by SC104 mab. 2×10^5 colorectal C170 cells were exposed to 1-100 μg/ml of SC104 for 6 hrs and cell lysates generated. The lysates were subsequently run a 12% SDS-PAGE, Western blotted and probed with a caspase 6 specific antibody (Cleaved caspase 6 antibody, Cell Signalling Technology (NEB), catalogue number 9761). Cells exposed to SC101 were included as a negative control.

[2] = HPTLC immunostaining of commercially available lipid standards; type: binding; conditions: standards of Table 6 (lactosyl ceramide, Gb3, globoside, Forrsman, GM3, AGM1, GM1, GD3, GD1a, GD1b, GT1b)
Text: The SC104 antigen has been compared to a number of commercially available lipid standards. Examples of each standard were spotted onto HPTLC plates and developed in 50:40:10 chloroform:methanol:CaCl2 (0.5% w/v). Plates were also spotted with partially purified SC104 antigen. Migration of each standard was detected by iodine vapour staining and the location of each marked on the plate. Plates were then probed with SC104.

[3] = test system: C170 cells; assay: Inhibition of SC104 cell death by z-FMK-vad caspase inhibitor; type: cell-based; conditions: 3 μg/ml SC104 with 3 μM z-FMK-vad inhibitor, overnight; annexin V FITC/PI
Method: SC104 inhibition of cell death using the z-FMK-vad caspase inhibitor. 2×10^5 C170 cells were subjected to 3 μg/ml of SC104 and half were also incubated with 3 μM z-FMK-vad inhibitor (Promega, catalogue number G7232) and incubated overnight. The following day cell viability was assayed using annexin V FITC and propidium iodide.

[4] = test system: normal colonic extranuclear membranes; assay: ELISA on extranuclear membranes of normal colon; type: binding; conditions: one line per patient (1-7)
Method: • Tumour and normal membrane extract binding. Extranuclear extractions of colorectal and normal colonic membranes were produced and binding of SC104 was assayed by ELISA. Results

[5] = test system: C14 antigen (90 KDa glycoprotein purified from saliva); assay: ELISA on C14 antigen; type: binding; conditions: FIG. 4
Method: • Binding to purified antigen preparations. […] Binding of SC104 mab was assayed by ELISA as described above.

[6] = test system: frozen tumour tissue sections; assay: Immunohistochemistry staining of frozen tumour tissue sections; type: binding, Human
Method: (§1) • Immunohistochemistry staining of normal and tumour tissues. Human tissues were obtained from an Inveresk approved supplier. Each tissue used was snap frozen in liquid nitrogen and stored at approximately −70° C. (±10° C.). Cryostat sections were cut and placed onto super frost plus slides. All tissue samples were treated with an antigen marker appropriate for each tissue in order to confirm the preservation of antigens in that tissue. The markers used were keratin for epithelial bearing tissues, CD45 for all lymphoid tissues, and desmin for all cardiac and skeletal muscle. Each tissue was examined from three unrelated donors. The method of staining employed was an indirect, 2 or 3-stage method, using secondary and tertiary antibodies together with an avidin-biotin-peroxidase complex. Endogenous peroxidase activity was blocked using hydrogen peroxide. Endogenous biotin was blocked by treating all tissue sections with a sequence of avidin-biotin. When a tertiary antibody was used, all tissue sections were treated with normal swine serum, which inhibits the binding of tertiary antibodies to the tissues. Validation of the immunohistochemical staining method was determined by staining on positive control tissues, the absence on negative controls and the effect of fixation on staining of control tissues. SC104 was tested against 6 donors of colon tumour and one of heart at concentrations of […]. Tissues were fixed in either acetone or neutral buffered formalin. Two samples of colon tumour stained well enough for use as a positive control and there was no staining in heart. […] The lowest concentration of SC104 giving the maximum staining intensity was 1 μg/ml and this concentration was used for subsequent work. Results

[7] = test system: frozen normal tissue sections; assay: Immunohistochemistry staining of frozen normal tissue sections; type: binding, Human
Method: as §1

[8] = test system: C170 cells; assay: FACS antibody saturation on fresh and fixed cells; type: binding
Method: FACS on fresh and fixed cells. C170 cells (10^5) either fresh or fixed with 0.5% glutaraldehyde for 1 hr were resuspended in 100 μl of SC104 mab (0-100 μg/ml) and incubated on ice for 1 hr. After washing the samples 3 times in RPMI/10% FCS cells were incubated with FITC labelled rabbit anti-mouse (1/80: Dako Ltd, Bucks, UK) antibody and incubated on ice for 30 minutes prior to analysing by FACS as described above.

[9] = test system: C170 tumour cells; assay: Annexin/PI dual colour flow cytometry; type: cell-based; conditions: concentration greater than 10 μg/ml; cells in suspension
Text: Annexin/PI. Tumour cells ([…]) or appropriate controls for 4 hr at room temperature could then also be stained with FITC labelled annexin and propidium iodide (Sigma, Poole, Dorset) and then analysed by dual colour flow cytometry.

[10] = test system: SC104 antigen purified from sputum; assay: Cross-reaction of antigen purified from sputum with antibodies; type: binding; conditions: FIG. 13
Text: • SC104 antigen purification and characterisation. SC104 specific antigen was purified from sputum samples mixed in a 1:1 ratio with 0.1M pH 7.6 Tris 0.5% NP40. Briefly an immuno-affinity was produced cross linking SC104 S136A to Protein A Cl-6B sepharose using Dimethyl pimelimidate.2HCl as the covalent linker Results

[11] = Normal Tissues: Large intestine
[12] = Normal Tissues: Parotid salivary gland
[13] = Normal Tissues: Small intestine
[14] = Normal Tissues: Urinary Bladder

B1: SC104: mouse IgG1 monoclonal antibody specific for a sialyltetraosyl carbohydrate, raised by immunisation with colorectal cancer cell lines (antibody, V domains shown)
VH: DVQLQESGPDLVKPSQSLSLTCTVTGYSITSGYSWHWVRQFPGNKMEWMGHIHFSGRPTYNPSLSSRISITRDTSKNQFLLQLKFVTTEDTSTYFCARKGKGSDDGLNYWGQGISVTVSS
VL: ENVLTQSPVIMSASPGEKVTMTCSASSSLSYIHWYQQKSRTSPKLWIYDTSNLASGVPGRFSGSGSGNSYSLTISSMEAEDVATYYCFQGSEYPLTFGGGTKLEMT
[1]
  caspase 6 activation: activation of caspase 6
[2]
  recognition of lipid standards: none of the standards were recognised by SC104
[3]
  increase in viable cells in the presence of the inhibitor: 23%
[4]
  Binding of SC104 mab to extranuclear membranes: Normal colon: 0.217 and 0.042 and 0.066 and 0.035 and 0.139 and 0.001 and 0.068
[5]
  binding to Lewis ^y/b expressing 90 KDa glycoprotein from saliva by ELISA: bound
[6]; Tumours: Breast
  Immunoreactivity with frozen tissue sections (binding): 3/6
[6]; Tumours: Colon
  Immunoreactivity with frozen tissue sections (binding): 8/8
[6]; Tumours: Endometrial
  Immunoreactivity with frozen tissue sections (binding): 2/2
[6]; Tumours: Lung
  Immunoreactivity with frozen tissue sections (binding): 0
[6]; Tumours: Oesophageal
  Immunoreactivity with frozen tissue sections (binding): 4/4
[6]; Tumours: Ovary
  Immunoreactivity with frozen tissue sections (binding): 0
[6]; Tumours: Parotid
  Immunoreactivity with frozen tissue sections (binding): 2/2
[6]; Tumours: Prostate
  Immunoreactivity with frozen tissue sections (binding): 0
[6]; Tumours: Renal
  Immunoreactivity with frozen tissue sections (binding): 0
[6]; Tumours: Stomach
  Immunoreactivity with frozen tissue sections (binding): 4/4
[6]; Tumours: Testes
  Immunoreactivity with frozen tissue sections (binding): 0/1
[6]; colon tumour positive control, neutral buffered formalin
  lowest concentration giving the maximum staining intensity: 1 µg/mL
[7]; Normal Tissues: Brain
  Comments on staining: Small number of scattered glial cells
  Immunoreactivity with frozen tissue sections (binding): 1/2
[7]; Normal Tissues: Breast
  Comments on staining: Epithelial cells scattered moderate
  Immunoreactivity with frozen tissue sections (binding): 2/3
[7]; Normal Tissues: Fallopian tube
  Comments on staining: Epithelial cells scattered moderate
  Immunoreactivity with frozen tissue sections (binding): 2/3
[7]; Normal Tissues: Heart
  Immunoreactivity with frozen tissue sections (binding): 0
[7]; Normal Tissues: Kidney
  Immunoreactivity with frozen tissue sections (binding): 0
[7]; [11]
  Comments on staining: Epithelial cells, mucous, diffuse
  Immunoreactivity with frozen tissue sections (binding): 3/3
[7]; Normal Tissues: Lung
  Comments on staining: Alveolar lining cells one donor
  Immunoreactivity with frozen tissue sections (binding): 2/3
[7]; Normal Tissues: Ovary
  Comments on staining: Follicular cells scattered and mild
  Immunoreactivity with frozen tissue sections (binding): 3/3
[7]; [12]
  Comments on staining: Moderate
  Immunoreactivity with frozen tissue sections (binding): 3/3
[7]; Normal Tissues: Placenta
  Immunoreactivity with frozen tissue sections (binding): 0
[7]; Normal Tissues: Prostate
  Comments on staining: Epithelial cells scatted and moderate
  Immunoreactivity with frozen tissue sections (binding): 3/3
[7]; Normal Tissues: Skin
  Comments on staining: Diffuse minimal staining
  Immunoreactivity with frozen tissue sections (binding): 2/3
[7]; [13]
  Comments on staining: Mucus superficial, diffuse minimal
  Immunoreactivity with frozen tissue sections (binding): 3/3
[7]; Normal Tissues: Spleen
  Immunoreactivity with frozen tissue sections (binding): 0
[7]; Normal Tissues: Stomach
  Comments on staining: Mucus superficial, diffuse mild
  Immunoreactivity with frozen tissue sections (binding): 2/3
[7]; Normal Tissues: Thymus
  Comments on staining: Epithelial cells, Hassall's corpuscle,
  Immunoreactivity with frozen tissue sections (binding): 3/3
[7]; Normal Tissues: Tonsil
  Comments on staining: Keratinised epithelium, membrane,
  Immunoreactivity with frozen tissue sections (binding): 3/3
[7]; [14]
  Comments on staining: Epithelial cells transitional
  Immunoreactivity with frozen tissue sections (binding): 2/2
[7]; Normal Tissues: Uterine cervix
  Comments on staining: Epithelial cells, membrane, diffuse
  Immunoreactivity with frozen tissue sections (binding): 3/3
[8]
  number of SC104 haptens at the surface of C170 tumour cells: approximately 4×10^5 sites per cell
[8]; SC104 0-100 μg/ml, FIG. 22
  antigen saturation on fresh and fixed cells: not saturated even at SC104 concentration of 100 μg/ml
[9]
  cells staining with PI: 75%
  cells staining with annexin: 30%
  cells staining with both annexin and PI: 65%
[10]
  cross-reaction with antigen purified from sputum: cross-react

— patent publication US8343490B2, “Monoclonal antibody SC104 and derivative thereof specifically binding to a sialyltetraosyl carbohydrate as a potential anti-tumor therapeutic agent” (Cephalon Australia Pty Ltd, priority 2004, dated 2013)
